In paper PMC10702828 one finds stoichiometry N data, which are given here for 4 substances.

A word on the stoichiometry N: it is a count of units in the complex or per binding partner.

Assay [1] deals with Ipi3 (Chaetomium thermophilum (endogenous in mycelium)). As to the kind of experiment: cryo-EM structure; pre-60S particles from the Flag eluates of PT-Rsa4 E117D with Nop7-Flag, Rix1-Flag or Flag-Las1.
For assay [2] the target is unchanged. As to the kind of experiment: cryo-EM structure; isolated rixosome from the PTF-Las1 eluate; Rix1 complex and Las1-Grc3 processed individually, whole rixosome at low resolution.
The target in assay [3] is Rix1 (Chaetomium thermophilum (endogenous in mycelium)). The assay is described as follows: cryo-EM structure; pre-60S particles from the Flag eluates of PT-Rsa4 E117D with Nop7-Flag, Rix1-Flag or Flag-Las1.
Assay [4] shares this target. As to the kind of experiment: cryo-EM structure; isolated rixosome from the PTF-Las1 eluate; Rix1 complex and Las1-Grc3 processed individually, whole rixosome at low resolution.
In assay [5] the target is polynucleotide kinase Grc3 (Chaetomium thermophilum (endogenous in mycelium)). Described as above.
For assay [6], the target named is wild‐type ct PTF‐Las1 (Chaetomium thermophilum). The description is as above.

For the substance Ipi3 (natural protein), the stoichiometry N in assay [1] and in assay [2] was 2 copies throughout. Rix1 (natural protein): the stoichiometry N in assay [3] and in assay [4] was 2 copies throughout. For polynucleotide kinase Grc3 (enzyme), the stoichiometry N in assay [5] came out at 2 copies. Consider wild‐type ct PTF‐Las1 (enzyme), for which the stoichiometry N in assay [6] was 2 copies.
